The values below come from article PMC5180592 (Science (New York, N.Y.), 2015).

B1: Nup85 (natural protein, S. cerevisiae, UniProt P46673 1-744, looked up)
chain: MTIDDSNRLLMDVDQFDFLDDGTAQLSNNKTDEEEQLYKRDPVSGAILVPMTVNDQPIEKNGDKMPLKFKLGPLSYQNMAFITAKDKYKLYPVRIPRLDTSKEFSAYVSGLFEIYRDLGDDRVFNVPTIGVVNSNFAKEHNATVNLAMEAILNELEVFIGRVKDQDGRVNRFYELEESLTVLNCLRTMYFILDGQDVEENRSEFIESLLNWINRSDGEPDEEYIEQVFSVKDSTAGKKVFETQYFWKLLNQLVLRGLLSQAIGCIERSDLLPYLSDTCAVSFDAVSDSIELLKQYPKDSSSTFREWKNLVLKLSQAFGSSATDISGELRDYIEDFLLVIGGNQRKILQYSRTWYESFCGFLLYYIPSLELSAEYLQMSLEANVVDITNDWEQPCVDIISGKIHSILPVMESLDSCTAAFTAMICEAKGLIENIFEGEKNSDDYSNEDNEMLEDLFSYRNGMASYMLNSFAFELCSLGDKELWPVAIGLIALSATGTRSAKKMVIAELLPHYPFVTNDDIEWMLSICVEWRLPEIAKEIYTTLGNQMLSAHNIIESIANFSRAGKYELVKSYSWLLFEASCMEGQKLDDPVLNAIVSKNSPAEDDVIIPQDILDCVVTNSMRQTLAPYAVLSQFYELRDREDWGQALRLLLLLIEFPYLPKHYLVLLVAKFLYPIFLLDDKKLMDEDSVATVIEVIETKWDDADEKSSNLYETIIEADKSLPSSMATLLKNLRKKLNFKLCQAFM

The target of experiment [1] is T1, Nup120 (S. cerevisiae, UniProt P35729 1-1037).
T1 sequence: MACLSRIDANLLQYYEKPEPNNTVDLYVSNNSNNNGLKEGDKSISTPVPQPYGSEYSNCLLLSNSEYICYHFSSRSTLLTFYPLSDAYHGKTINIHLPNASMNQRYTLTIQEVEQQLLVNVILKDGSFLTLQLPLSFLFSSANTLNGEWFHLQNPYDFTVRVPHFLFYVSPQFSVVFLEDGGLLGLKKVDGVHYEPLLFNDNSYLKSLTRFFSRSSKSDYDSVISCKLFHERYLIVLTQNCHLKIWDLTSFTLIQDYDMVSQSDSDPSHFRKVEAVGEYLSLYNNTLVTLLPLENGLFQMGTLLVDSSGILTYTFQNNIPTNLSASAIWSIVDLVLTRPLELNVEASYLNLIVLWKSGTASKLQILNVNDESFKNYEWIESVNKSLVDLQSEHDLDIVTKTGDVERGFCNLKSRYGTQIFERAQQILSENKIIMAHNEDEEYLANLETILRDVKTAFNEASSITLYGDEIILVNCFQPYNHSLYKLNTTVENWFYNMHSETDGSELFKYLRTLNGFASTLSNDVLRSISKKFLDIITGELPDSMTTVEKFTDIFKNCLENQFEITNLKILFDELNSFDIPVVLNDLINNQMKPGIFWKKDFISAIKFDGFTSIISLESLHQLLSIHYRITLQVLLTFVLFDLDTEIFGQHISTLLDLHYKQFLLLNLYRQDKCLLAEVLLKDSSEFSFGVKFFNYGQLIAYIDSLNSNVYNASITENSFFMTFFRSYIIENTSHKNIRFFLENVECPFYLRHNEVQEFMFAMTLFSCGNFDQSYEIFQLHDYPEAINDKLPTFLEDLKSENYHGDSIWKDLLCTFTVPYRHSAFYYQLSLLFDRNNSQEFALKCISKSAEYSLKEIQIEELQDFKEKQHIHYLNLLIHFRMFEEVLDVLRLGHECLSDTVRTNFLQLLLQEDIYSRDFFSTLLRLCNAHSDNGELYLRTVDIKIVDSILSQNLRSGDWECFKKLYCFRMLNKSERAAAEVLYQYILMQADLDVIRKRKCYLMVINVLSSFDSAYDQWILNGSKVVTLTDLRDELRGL
Nature of the experiment: crystal structure.

Experiment [2] addresses B1. Nature of the experiment: crystal structure.
The target in another experiment is Nup145C (S. cerevisiae, UniProt P49687). Nature of the experiment: crystal structure.
The target in experiment [3] is Nup85 (S. cerevisiae, UniProt P46673). Nature of the experiment: crystal structure.
In experiment [4] the target is T1, Nup120. Nature of the experiment: SEC. Background: In gel filtration, larger molecules generally elute earlier.

Nup145C, sequence (P49687 680-1317): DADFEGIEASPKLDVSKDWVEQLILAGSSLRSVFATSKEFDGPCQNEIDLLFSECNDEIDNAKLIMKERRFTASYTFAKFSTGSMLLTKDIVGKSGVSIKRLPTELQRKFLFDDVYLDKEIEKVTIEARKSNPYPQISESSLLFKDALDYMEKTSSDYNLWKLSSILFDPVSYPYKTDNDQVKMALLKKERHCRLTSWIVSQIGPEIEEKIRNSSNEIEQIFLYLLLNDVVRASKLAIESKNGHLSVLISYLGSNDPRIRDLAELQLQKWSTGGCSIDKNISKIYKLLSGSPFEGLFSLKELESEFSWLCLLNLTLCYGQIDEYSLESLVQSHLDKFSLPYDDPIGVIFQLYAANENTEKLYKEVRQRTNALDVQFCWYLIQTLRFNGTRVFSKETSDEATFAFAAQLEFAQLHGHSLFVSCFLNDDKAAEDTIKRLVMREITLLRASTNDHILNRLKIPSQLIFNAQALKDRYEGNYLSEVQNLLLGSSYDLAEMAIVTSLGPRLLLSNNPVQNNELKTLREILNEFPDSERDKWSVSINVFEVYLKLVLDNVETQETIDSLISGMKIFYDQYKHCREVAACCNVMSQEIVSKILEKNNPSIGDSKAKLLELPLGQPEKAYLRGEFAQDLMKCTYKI

As for B1, the binding result in the experiment with Nup120 [1] is “binds”.

B2: Seh1 (natural protein, S. cerevisiae)
chain: MQPFDSGHDDLVHDVVYDFYGRHVATCSSDQHIKVFKLDKDTSNWELSDSWRAHDSSIVAIDWASPEYGRIIASASYDKTVKLWEEDPDQEECSGRRWNKLCTLNDSKGSLYSVKFAPAHLGLKLACLGNDGILRLYDALEPSDLRSWTLTSEMKVLSIPPANHLQSDFCLSWCPSRFSPEKLAVSALEQAIIYQRGKDGKLHVAAKLPGHKSLIRSISWAPSIGRWYQLIATGCKDGRIRIFKITEKLSPLASEESLTNSNMFDNSADVDMDAQGRSDSNTEEKAELQSNLQVELLSEHDDHNGEVWSVSWNLTGTILSSAGDDGKVRLWKATYSNEFKCMSVITAQQ
With B2, in the experiment with Nup85 [2], the binding result was “binds”.

B3: synthetic antibody sAB-57 (Fab, V domains shown)
VH: EVQLVESGGGLVQPGGSLRLSCAASGFNVSYSSIHWVRQAPGKGLEWVASIYPYYGSTSYADSVKGRFTISADTSKNTAYLQMNSLRAEDTAVYYCARTGMYFGFFHHSWSNAALDYWGQGTLVTVSS
VL: DIQMTQSPSSLSASVGDRVTITCRASQSVSSAVAWYQQKPGKAPKLLIYSASSLYSGVPSRFSGSRSGTDFTLTISSLQPEDFATYYCQQISQYPITFGQGTKVEIK
For B3, the binding result with Nup145C and with Nup85 [3] was “binds” each time.

B4: Nup85 C-terminal domain (domain or fragment, S. cerevisiae, UniProt P46673 545-744, looked up)
chain: QMLSAHNIIESIANFSRAGKYELVKSYSWLLFEASCMEGQKLDDPVLNAIVSKNSPAEDDVIIPQDILDCVVTNSMRQTLAPYAVLSQFYELRDREDWGQALRLLLLLIEFPYLPKHYLVLLVAKFLYPIFLLDDKKLMDEDSVATVIEVIETKWDDADEKSSNLYETIIEADKSLPSSMATLLKNLRKKLNFKLCQAFM
For B4, in the experiment with Nup120 [4], the binding result is recorded as “binds”.
